Experimental data as given in paper PMC4157861.

Target: FHA domain of human kanadaptin (residues 149-276) (human) (UniProt Q9BWU0)
Experiment: crystal structure; crystals from 1.6 M ammonium sulfate, 0.1 M citric acid pH 5.0, 277 K; space group P2(1)2(1)2(1); tag removed; one homodimer in the asymmetric unit

FHA domain of human kanadaptin (residues 149-276) (from UniProt Q9BWU0 149-276) (domain or fragment)
stoichiometry N: 2
